Molecular target: T1, adenovirus serotype 5 virions (human adenovirus serotype 5)
T1 chain: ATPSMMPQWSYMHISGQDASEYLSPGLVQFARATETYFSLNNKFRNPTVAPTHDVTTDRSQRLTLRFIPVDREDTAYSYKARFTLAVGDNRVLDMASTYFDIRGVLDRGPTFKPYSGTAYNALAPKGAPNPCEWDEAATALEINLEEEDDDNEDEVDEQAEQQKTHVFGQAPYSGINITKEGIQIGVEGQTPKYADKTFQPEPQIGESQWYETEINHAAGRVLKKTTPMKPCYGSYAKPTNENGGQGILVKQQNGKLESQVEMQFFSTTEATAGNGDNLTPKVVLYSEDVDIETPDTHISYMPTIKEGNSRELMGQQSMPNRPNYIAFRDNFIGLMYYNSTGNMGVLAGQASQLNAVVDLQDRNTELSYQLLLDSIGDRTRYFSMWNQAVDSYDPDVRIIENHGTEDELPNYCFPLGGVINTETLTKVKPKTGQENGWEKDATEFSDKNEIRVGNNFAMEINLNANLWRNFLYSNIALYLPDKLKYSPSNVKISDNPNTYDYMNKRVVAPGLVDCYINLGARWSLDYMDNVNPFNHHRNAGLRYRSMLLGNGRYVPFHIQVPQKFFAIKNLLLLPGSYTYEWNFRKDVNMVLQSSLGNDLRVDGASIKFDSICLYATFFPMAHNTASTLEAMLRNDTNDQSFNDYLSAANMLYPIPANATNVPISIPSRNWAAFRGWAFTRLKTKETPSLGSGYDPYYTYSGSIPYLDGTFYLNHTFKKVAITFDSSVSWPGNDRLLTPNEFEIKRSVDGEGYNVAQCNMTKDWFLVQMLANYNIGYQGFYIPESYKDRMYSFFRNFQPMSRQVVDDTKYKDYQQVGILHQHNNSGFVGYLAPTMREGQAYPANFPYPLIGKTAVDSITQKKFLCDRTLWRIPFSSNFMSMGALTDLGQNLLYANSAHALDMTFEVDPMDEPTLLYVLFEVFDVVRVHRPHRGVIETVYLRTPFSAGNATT
Assay: SPR; Ad virions immobilised on the chip, probed with soluble FX in serial two-fold dilutions from 0.4 to 25 μg/ml, in duplicates
Settings: both partners purified

B1: blood coagulation factor X (natural protein)
chain 1: ANSFLEEMKKGHLERECMEETCSYEEAREVFEDSDKTNEFWNKYKDGDQCETSPCQNQGKCKDGLGEYTCTCLEGFEGKNCELFTRKLCSLDNGDCDQFCHEEQNSVVCSCARGYTLADNGKACIPTGPYPCGKQTLER
chain 2: SVAQATSSSGEAPDSITWKPYDAADLDPTENPFDLLDFNQTQPERGDNNLTRIVGGQECKDGECPWQALLINEENEGFCGGTILSEFYILTAAHCLYQAKRFKVRVGDRNTEQEEGGEAVHEVEVVIKHNRFTKETYDFDIAVLRLKTPITFRMNVAPACLPERDWAESTLMTQKTGIVSGFGRTHEKGRQSTRLKMLEVPYVDRNSCKLSSSFIITQNMFCAGYDTKQEDACQGDSGGPHVTRFKDTYFVTGIVSWGEGCARKGKYGIYTKVTAFLKWIDRSMKTRGLPKAKSHAPEVITSSPLK
modifications: Zymogen FX assumed (not FXa): light chain disulfide-linked to heavy chain with the activation peptide retained. Gamma-carboxylated Gla domain, beta-hydroxy-Asp, N-/O-glycosylation; Ca2+-bound state …
B1 gave a Kd of 1.5 nM.

— paper PMC5288196, “Native and engineered tropism of vectors derived from a rare species D adenovirus serotype 43” (Oncotarget, 2016)
